Measurements: IntAct's records for PubMed 18769030

B1: Solute carrier family 12 member 5 (Rattus norvegicus (Rat)), Q63633 (parent)
chain: MSRRFTVTSLPPAASAASADPESRRHSVADPRRLPREDVKGDGNPKESSPFINSTDTEKGREYDGRNMALFEEEMDTSPMVSSLLSGLANYTNLPQGSKEHEEAENNEGGKKKPVQAPRMGTFMGVYLPCLQNIFGVILFLRLTWVVGIAGIMESFCMVFICCSCTMLTAISMSAIATNGVVPAGGSYYMISRSLGPEFGGAVGLCFYLGTTFAGAMYILGTIEILLAYLFPAMAIFKAEDASGEAAAMLNNMRVYGTCVLTCMATVVFVGVKYVNKFALVFLGCVILSILAIYAGVIKSAFDPPNFPICLLGNRTLSRHGFDVCAKLAWEGNETVTTRLWGLFCSSRLLNATCDEYFTRNNVTEIQGIPGAASGLIKENLWSSYLTKGVIVERRGMPSVGLADGTPVDMDHPYVFSDMTSYFTLLVGIYFPSVTGIMAGSNRSGDLRDAQKSIPTGTILAIATTSAVYISSVVLFGACIEGVVLRDKFGEAVNGNLVVGTLAWPSPWVIVIGSFFSTCGAGLQSLTGAPRLLQAISRDGIVPFLQVFGHGKANGEPTWALLLTACICEIGILIASLDEVAPILSMFFLMCYMFVNLACAVQTLLRTPNWRPRFRYYHWTLSFLGMSLCLALMFICSWYYALVAMLIAGLIYKYIEYRGAEKEWGDGIRGLSLSAARYALLRLEEGPPHTKNWRPQLLVLVRVDQDQNVVHPQLLSLTSQLKAGKGLTIVGSVLEGTFLDNHPQAQRAEESIRRLMEAEKVKGFCQVVISSNLRDGVSHLIQSGGLGGLQHNTVLVGWPRNWRQKEDHQTWRNFIELVRETTAGHLALLVTKNVSMFPGNPERFSEGSIDVWWIVHDGGMLMLLPFLLRHHKVWRKCKMRIFTVAQMDDNSIQMKKDLTTFLYHLRITAEVEVVEMHESDISAYTYEKTLVMEQRSQILKQMHLTKNEREREIQSITDESRGSIRRKNPANTRLRLNVPEETACDNEEKPEEEVQLIHDQSAPSCPSSSPSPGEEPEGEGETDPEKVHLTWTKDKSAAQKNKGPSPVSSEGIKDFFSMKPEWENLNQSNVRRMHTAVRLNEVIVNKSRDAKLVLLNMPGPPRNRNGDENYMEFLEVLTEQLDRVMLVRGGGREVITIYS

Variants of: B1
Conditions: with mycb2_mouse Mycbp2, Q7TPH6
Sequence of mycb2_mouse Mycbp2, Q7TPH6 (Q7TPH6 whole entry): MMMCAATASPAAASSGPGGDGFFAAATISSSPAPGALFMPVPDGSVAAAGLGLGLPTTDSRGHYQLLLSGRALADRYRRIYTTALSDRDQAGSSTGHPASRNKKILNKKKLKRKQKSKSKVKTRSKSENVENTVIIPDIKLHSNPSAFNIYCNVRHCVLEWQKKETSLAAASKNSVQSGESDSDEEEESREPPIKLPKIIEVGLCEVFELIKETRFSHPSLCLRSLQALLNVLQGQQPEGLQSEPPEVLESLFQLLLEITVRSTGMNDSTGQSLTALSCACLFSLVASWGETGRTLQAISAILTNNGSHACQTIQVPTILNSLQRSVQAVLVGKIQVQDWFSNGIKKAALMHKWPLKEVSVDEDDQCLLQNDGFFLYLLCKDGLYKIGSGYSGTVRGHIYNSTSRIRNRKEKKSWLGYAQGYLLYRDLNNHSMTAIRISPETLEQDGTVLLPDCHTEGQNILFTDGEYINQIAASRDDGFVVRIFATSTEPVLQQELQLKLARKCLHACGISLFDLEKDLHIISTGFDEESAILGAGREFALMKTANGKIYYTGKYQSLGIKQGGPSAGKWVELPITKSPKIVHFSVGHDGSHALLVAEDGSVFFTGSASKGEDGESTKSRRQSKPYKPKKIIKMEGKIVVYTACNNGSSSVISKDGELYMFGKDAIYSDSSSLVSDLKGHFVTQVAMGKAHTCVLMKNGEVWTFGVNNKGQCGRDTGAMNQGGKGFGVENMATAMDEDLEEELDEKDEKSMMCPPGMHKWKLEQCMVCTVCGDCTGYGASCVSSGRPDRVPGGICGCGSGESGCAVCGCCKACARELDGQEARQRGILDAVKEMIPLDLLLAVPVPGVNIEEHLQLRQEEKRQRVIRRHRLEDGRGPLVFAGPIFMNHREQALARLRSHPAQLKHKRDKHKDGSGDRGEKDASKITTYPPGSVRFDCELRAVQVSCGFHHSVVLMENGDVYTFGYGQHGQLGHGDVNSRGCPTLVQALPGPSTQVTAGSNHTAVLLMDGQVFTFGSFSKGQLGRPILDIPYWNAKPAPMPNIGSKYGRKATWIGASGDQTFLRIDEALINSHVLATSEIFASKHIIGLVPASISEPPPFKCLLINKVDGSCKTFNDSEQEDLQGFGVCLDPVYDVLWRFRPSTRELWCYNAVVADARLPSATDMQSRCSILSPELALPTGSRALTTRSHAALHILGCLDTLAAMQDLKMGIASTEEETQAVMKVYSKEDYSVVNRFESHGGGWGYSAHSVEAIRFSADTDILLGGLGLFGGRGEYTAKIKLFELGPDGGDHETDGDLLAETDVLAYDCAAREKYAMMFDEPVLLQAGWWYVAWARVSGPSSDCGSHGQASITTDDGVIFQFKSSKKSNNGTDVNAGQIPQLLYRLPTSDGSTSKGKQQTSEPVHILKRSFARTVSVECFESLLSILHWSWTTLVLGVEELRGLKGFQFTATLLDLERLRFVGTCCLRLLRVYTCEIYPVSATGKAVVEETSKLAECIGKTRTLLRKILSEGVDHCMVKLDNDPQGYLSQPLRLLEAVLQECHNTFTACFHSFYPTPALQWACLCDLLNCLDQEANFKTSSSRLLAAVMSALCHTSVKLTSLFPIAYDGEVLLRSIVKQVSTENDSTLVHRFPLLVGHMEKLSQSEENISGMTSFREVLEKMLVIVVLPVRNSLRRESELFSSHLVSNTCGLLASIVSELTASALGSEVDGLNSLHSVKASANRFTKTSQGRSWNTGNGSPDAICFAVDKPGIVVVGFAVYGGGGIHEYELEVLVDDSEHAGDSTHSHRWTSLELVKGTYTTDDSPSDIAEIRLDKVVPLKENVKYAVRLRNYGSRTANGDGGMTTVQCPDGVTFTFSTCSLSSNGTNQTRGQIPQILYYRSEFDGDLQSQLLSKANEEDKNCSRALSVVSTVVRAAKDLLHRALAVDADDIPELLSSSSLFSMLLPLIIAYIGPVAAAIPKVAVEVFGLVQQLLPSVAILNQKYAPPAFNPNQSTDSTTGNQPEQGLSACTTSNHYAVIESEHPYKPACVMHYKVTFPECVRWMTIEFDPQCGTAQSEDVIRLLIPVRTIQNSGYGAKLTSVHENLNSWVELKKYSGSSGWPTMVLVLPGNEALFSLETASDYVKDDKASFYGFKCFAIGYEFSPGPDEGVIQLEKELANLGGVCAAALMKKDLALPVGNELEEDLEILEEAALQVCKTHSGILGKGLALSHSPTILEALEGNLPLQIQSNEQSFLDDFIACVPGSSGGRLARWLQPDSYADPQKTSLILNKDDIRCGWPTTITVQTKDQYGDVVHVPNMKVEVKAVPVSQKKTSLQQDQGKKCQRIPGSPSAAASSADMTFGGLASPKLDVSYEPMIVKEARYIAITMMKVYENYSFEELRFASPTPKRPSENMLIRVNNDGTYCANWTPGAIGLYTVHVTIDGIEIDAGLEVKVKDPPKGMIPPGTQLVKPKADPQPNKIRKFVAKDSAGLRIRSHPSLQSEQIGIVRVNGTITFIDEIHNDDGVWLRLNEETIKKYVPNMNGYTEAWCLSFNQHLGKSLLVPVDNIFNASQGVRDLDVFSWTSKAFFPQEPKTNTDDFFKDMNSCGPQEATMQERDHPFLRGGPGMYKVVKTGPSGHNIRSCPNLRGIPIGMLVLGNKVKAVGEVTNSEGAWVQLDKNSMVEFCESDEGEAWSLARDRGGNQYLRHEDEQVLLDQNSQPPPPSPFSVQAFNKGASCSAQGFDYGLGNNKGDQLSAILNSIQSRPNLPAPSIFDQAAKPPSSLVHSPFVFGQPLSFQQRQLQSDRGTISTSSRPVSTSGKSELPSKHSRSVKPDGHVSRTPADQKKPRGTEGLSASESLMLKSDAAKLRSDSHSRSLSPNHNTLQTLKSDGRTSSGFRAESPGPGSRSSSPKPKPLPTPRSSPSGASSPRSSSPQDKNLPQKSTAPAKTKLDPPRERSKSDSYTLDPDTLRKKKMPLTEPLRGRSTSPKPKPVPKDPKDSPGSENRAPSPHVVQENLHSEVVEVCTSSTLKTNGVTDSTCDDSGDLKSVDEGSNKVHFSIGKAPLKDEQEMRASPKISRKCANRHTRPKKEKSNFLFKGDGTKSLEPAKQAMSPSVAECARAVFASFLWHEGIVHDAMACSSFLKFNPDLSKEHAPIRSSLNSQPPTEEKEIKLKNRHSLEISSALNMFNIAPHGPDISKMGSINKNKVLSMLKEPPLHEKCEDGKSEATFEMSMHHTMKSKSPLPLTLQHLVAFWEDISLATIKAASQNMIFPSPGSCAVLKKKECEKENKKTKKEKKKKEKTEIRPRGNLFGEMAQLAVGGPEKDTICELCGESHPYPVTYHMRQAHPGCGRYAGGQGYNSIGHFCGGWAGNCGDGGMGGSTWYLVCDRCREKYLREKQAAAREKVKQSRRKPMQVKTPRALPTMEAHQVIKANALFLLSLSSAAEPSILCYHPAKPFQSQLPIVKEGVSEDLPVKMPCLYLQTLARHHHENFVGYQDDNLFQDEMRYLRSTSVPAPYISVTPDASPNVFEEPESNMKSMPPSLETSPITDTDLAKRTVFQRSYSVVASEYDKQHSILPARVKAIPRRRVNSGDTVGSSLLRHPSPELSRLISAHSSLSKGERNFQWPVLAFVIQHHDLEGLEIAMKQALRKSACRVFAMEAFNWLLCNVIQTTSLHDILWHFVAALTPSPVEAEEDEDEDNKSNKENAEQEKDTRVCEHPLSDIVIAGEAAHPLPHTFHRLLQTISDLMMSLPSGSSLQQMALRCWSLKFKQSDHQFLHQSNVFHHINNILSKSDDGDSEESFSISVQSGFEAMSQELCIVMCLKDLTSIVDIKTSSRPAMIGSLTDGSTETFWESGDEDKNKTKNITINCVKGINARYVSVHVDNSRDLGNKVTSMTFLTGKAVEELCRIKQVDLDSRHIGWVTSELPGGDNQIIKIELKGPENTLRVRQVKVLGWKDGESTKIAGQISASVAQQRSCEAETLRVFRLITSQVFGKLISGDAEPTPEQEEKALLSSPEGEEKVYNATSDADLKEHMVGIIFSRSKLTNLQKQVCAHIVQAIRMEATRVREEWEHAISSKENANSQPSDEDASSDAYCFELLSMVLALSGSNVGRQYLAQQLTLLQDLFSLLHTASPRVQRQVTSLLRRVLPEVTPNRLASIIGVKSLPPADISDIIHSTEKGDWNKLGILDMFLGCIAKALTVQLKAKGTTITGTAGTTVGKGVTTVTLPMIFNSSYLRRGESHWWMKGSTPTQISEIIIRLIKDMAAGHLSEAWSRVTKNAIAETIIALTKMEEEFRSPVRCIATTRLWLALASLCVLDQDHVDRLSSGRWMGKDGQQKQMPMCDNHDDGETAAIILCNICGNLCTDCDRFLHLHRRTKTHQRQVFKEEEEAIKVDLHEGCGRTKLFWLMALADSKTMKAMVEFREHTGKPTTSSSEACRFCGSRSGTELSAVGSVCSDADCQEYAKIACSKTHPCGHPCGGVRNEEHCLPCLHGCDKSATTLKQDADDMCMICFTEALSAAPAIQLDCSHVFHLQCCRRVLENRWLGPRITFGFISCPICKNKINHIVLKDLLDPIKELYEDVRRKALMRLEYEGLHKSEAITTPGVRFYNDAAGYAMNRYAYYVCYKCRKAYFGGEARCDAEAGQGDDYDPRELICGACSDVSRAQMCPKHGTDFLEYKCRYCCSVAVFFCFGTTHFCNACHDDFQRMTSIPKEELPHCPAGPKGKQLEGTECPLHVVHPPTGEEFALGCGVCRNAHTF

Variant	effect of a mutation on the interaction
N1105E	disrupting interaction
R1104A	disrupting interaction

Variants of: B1
Conditions: with mycb2_mouse Mycbp2, Q7TPH6
Remark: another data set of the same source

Variant	effect of a mutation on the interaction
R1104A	decreasing interaction
